Assay results: article PMC3058911

Legend:
[1] = biological target: CdiI536-T18 (bacterial two-hybrid fusion) (E. coli UPEC 536); experiment: two-hybrid
[2] = biological target: CdiI3937-2-T18 (bacterial two-hybrid fusion) (Dickeya dadantii 3937) (UniProt E0SDG7); experiment: two-hybrid
Sequence of UniProt E0SDG7 (E0SDG7 whole entry, the tested form may be a part): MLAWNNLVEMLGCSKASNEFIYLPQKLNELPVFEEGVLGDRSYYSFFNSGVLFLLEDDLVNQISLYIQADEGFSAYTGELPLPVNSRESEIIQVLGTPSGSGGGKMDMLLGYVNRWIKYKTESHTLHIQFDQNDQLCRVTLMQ

Substance | β-galactosidase activity [1] | β-galactosidase activity [2]
T25-CdiA-CT536 (bacterial two-hybrid fusion) (domain or fragment) | > 300 units | –
T25-CdiA-CT3937-2 (bacterial two-hybrid fusion) (from UniProt E0SDG8 1-3326) (domain or fragment) | – | > 300 units
